Test results published in the RNAGym collection of RNA variant scans (doi:10.1093/molbev/msab373).

B1: Azoarcus group I ribozyme (parent)
chain: GUGCCUUGCGCCGGGAAACCACGCAAGGGAUGGUGUCAAAUUCGGCGAAACCUAAGCGCCCGCCCGGGCGUAUGGCAACGCCGAGCCAAGCUUCGGCGCCUGCGCCGAUGAAGGUGUAGAGACUAGACGGCACCCACCUAAGGCAAACGCUAUGGUGAAGGCAUAGUCCAGGGAGUGGCGAAAGUCACACAAACCGG

Variants of: B1
Experiment: reverse-splicing fitness (ratio to wild type); higher = more active; in vitro selection; Mg2+ level not given
Procedure, shortened: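 An in vitro group I ribozyme library with randomized positions was T7-transcribed and gel-purified. In triplicate, 10 pmol RNA in EPPS pH 7.5 was reacted with 50 pmoles of a 30-nt RNA substrate for 1 h at 37 °C across several added MgCl2 levels (1–48 mM), then stopped with EDTA. Products were reverse transcribed from a substrate-complementary primer, PCR-amplified and sequenced (HiSeq 4000). Fitness is a variant's read proportion after selection over that before, normalised to wild type.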

Going from C82G A111C C150A U176C to C82G A111C C150A U176A, the reverse-splicing fitness falls from 0.0293 to 0.0223.

First: C82G A111C A145G C150G C169U
Second: C82G A111C A145G C150G C169A
The reverse-splicing fitness of the first is lower: 0.0089 for the first, 0.0091 for the second.

Going from C82G A111C A145G C150G C169G to C82G A111C A145U U176A, the reverse-splicing fitness rises from 0.00707 to 0.138.

Compared with C82G A111C A145U U176G, C82G A111C A145U U176C is higher in reverse-splicing fitness: 0.0645 for the first, 0.136 for the second.

Compared with C82G A111G A120C A145G C150G C169A U176G, C82G A111G A120C A145G C150G C169A U176C is higher in reverse-splicing fitness: 0.0091 for the first, 0.0151 for the second.

First: C82G A111G A120C A145G C150G C169A U176A
Second: C82G A111C U176A
The reverse-splicing fitness of the first is lower: 0.0153 for the first, 0.133 for the second.

Going from C82G A111C U176G to C82G A111C U176C, the reverse-splicing fitness rises from 0.0517 to 0.139.

Compared with C82G A111C C150U C169G U176C, C82G A111C C150U C169G U176G is lower in reverse-splicing fitness: 0.0174 for the first, 0.00784 for the second.

First: C82G A111C C150U C169G U176A
Second: C82G A111C C150G C169A U176C
The reverse-splicing fitness of the first is higher: 0.0133 for the first, 0.0108 for the second.

First: C82G A111C C150G C169A U176G
Second: C82G A111C C150G C169A U176A
The reverse-splicing fitness of the first is lower: 0.00647 for the first, 0.00955 for the second.

Compared with C82G A111G A120C A145G C150U C169U U176A, C82G A111G A120C A145G C150U C169U U176G is lower in reverse-splicing fitness: 0.0133 for the first, 0.00664 for the second.

First: C82G A111G A120C A145G C150U C169U U176C
Second: C82G A111C A145U C169A
The reverse-splicing fitness of the first is higher: 0.0145 for the first, 0.00813 for the second.

Compared with C82G A111C A145U C169G, C82G A111C A145U C169U is higher in reverse-splicing fitness: 0.0102 for the first, 0.0133 for the second.

Compared with C82G A111G A120C A145C C150A C169A U176C, C82G A111G A120C A145C C150A C169A U176A is higher in reverse-splicing fitness: 0.00849 for the first, 0.0183 for the second.

Going from C82G A111G A120C A145C C150A C169A U176G to C82G A111C A145G C169U U176A, the reverse-splicing fitness rises from 0.00653 to 0.0152.

Compared with C82G A111C A145G C169U U176G, C82G A111C A145G C169U U176C is higher in reverse-splicing fitness: 0.00729 for the first, 0.0148 for the second.

Going from C82G A111G A120C A145G C150U U176A to C82G A111G A120C A145G C150U U176G, the reverse-splicing fitness falls from 0.0189 to 0.0117.

First: C82G A111G A120C A145G C150U U176C
Second: C82G A111G A120C A145U C150A
The reverse-splicing fitness of the first is higher: 0.0344 for the first, 0.0142 for the second.

Compared with C82G A111G A120C A145U C150G, C82G A111C A145U C150G C169G U176G is lower in reverse-splicing fitness: 0.0127 for the first, 0.00802 for the second.

Compared with C82G A111C A145U C150G C169G U176C, C82G A111C A145U C150G C169G U176A is higher in reverse-splicing fitness: 0.00714 for the first, 0.00806 for the second.

First: C82G A111G A120C A145G C150G
Second: C82G A111G A120C A145G C150A
The reverse-splicing fitness of the first is lower: 0.0123 for the first, 0.0184 for the second.

Going from C82G A111G A120C A145G C150U to C82G A111G A120C A145C C169A U176C, the reverse-splicing fitness falls from 0.0625 to 0.0106.

Going from C82G A111G A120C A145C C169A U176A to C82G A111G A120C A145C C169A U176G, the reverse-splicing fitness falls from 0.0154 to 0.00459.

Going from C82G A111C A145U C150A C169U U176C to C82G A111C A145U C150A C169U U176G, the reverse-splicing fitness falls from 0.014 to 0.00816.

First: C82G A111C A145U C150A C169U U176A
Second: C82G A111C A145G C150U
The reverse-splicing fitness of the first is lower: 0.0139 for the first, 0.205 for the second.

Compared with C82G A111C A145G C150G, C82G A111G A120C A145C C169U U176G is lower in reverse-splicing fitness: 0.0266 for the first, 0.00475 for the second.

Compared with C82G A111G A120C A145C C169U U176C, C82G A111G A120C A145C C169U U176A is higher in reverse-splicing fitness: 0.01 for the first, 0.0142 for the second.

Compared with C82G A111C A145U C150G C169U U176G, C82G A111C A145U C150G C169U U176C is higher in reverse-splicing fitness: 0.00704 for the first, 0.0123 for the second.

Compared with C82G A111C A145U C150G C169U U176A, C82G A111G A120C A145C C150G C169U is higher in reverse-splicing fitness: 0.00811 for the first, 0.00968 for the second.

Compared with C82G A111G A120C A145C C150G C169A, C82G A111G A120C A145C C150G C169G is lower in reverse-splicing fitness: 0.00872 for the first, 0.00805 for the second.

Going from C82G A111C A145U C150A to C82G A111C A145U C150G, the reverse-splicing fitness falls from 0.0253 to 0.0245.

Going from C82G A111C A145U C150U to C82G A111G A120C A145C C150U C169A, the reverse-splicing fitness falls from 0.172 to 0.00918.

Going from C82G A111G A120C A145C C150U C169G to C82G A111G A120C A145C C150U C169U, the reverse-splicing fitness rises from 0.00849 to 0.0103.

Going from C82G A111C A145U C169U U176G to C82G A111C A145U C169U U176A, the reverse-splicing fitness rises from 0.00693 to 0.0168.

Compared with C82G A111C A145U C169U U176C, C82G A111G A120C A145C C150A C169A is lower in reverse-splicing fitness: 0.0153 for the first, 0.00953 for the second.

Going from C82G A111G A120C A145C C150A C169U to C82G A111G A120C A145C C150A C169G, the reverse-splicing fitness falls from 0.00986 to 0.00899.

Going from C82G A111C C150A C169U to C82G A111C C150A C169A, the reverse-splicing fitness falls from 0.0119 to 0.011.

Going from C82G A111C C150A C169G to C82G A111G A120C A145G C150G U176C, the reverse-splicing fitness rises from 0.00787 to 0.011.

First: C82G A111G A120C A145G C150G U176A
Second: C82G A111G A120C A145G C150G U176G
The reverse-splicing fitness of the first is higher: 0.00724 for the first, 0.0057 for the second.

Going from C82G A111C A145U C150U C169G to C82G A111C A145U C150U C169A, the reverse-splicing fitness falls from 0.00905 to 0.00854.

Compared with C82G A111C A145U C150U C169U, C82G A111C C150G C169G U176A is lower in reverse-splicing fitness: 0.0121 for the first, 0.00734 for the second.

For C82G A111C C150G C169G U176G, the reverse-splicing fitness was 0.00603.
